# Test results reported in the DeepSol protein solubility set.
# Assay: soluble on expression in E. coli; label from the status in PepcDB or PDB records
row,Sequence,soluble on expression in E. coli
1,MGSDKIHHHHHHMAMNDNNINTCRYRVDVPYPPVRVVGPNPVYACEMLGNMGDAVSEMSDVTRYFYISVVTKPQYSWISACFRDISIVEMHHLNIFAELALLLGADPRLWSCRDCMQWWSPSYIGYPHGVRPLIAESIQAEEAAIRKYSHQADTICDMNIVAILRRIIQDEMYHLQIFREMYQQV,not soluble
2,MGSDKIHHHHHHMKPIDIKENKNPVESAQFGKTQDEPLSDKTHVQISDEATQWLLTIEEDDSENNQQALNAWLSLSAQHKKVYQQLQTLWEVADELPVDLFSEDLLGLSMTPSSAVNTSSRVNPYALKKESILAKFISFFTLRKTMYTASFASVIFATFITFTQYNREMVTTDKPLQVASSSTLRTNEYQTKLGEHKTITAQDGSIIVLAAKSQVFIDYSANRRDIHLLYGEALFTVEKDKERPFIVHNHGRSVQALGTIFNVRESKSAMQVSVLEGIVEVNVEPEVKSKVTNSSDKNQVATLVAGQALELDSLGQFSTTYAIEVNERMAWQDGRLNYVNTDLANVIFDLKRYSTLSIHIPNKQVANMGYTGSVIYDKVDDWLIALPYIFPVEVQRHGNSVVIVKRKE,not soluble
3,MGGRQSSVTEERPRSNSVDTAQVRVSSQHSSSQRANVMTAAEFMQTMRNARFLSSSSDSNASEDDAGPSHSTTHGNRSRGLHATPGRLHGHHSRRSVPVFMMDMKCPVCHKVVPSDDADIHLVMCLTRPKITYNDDVLKDDKGECSICLEDLEAGHKIARLPCLCIYHKQCIDDWFKRKNCCPEHPGDD,not soluble
4,TVEFRDLQGQRMIAVAENVASTPVVRDQLSDRSVERVLAPEVDRAVNLSGATLAEIVAPNGAVTVSSDPTRLGVPAELGASDVMTGRAWSGDVDVDGRRAIVGHVPILSATGDVLAVVTVSDDYPSVWDLLSSAG,not soluble
5,QEKSARDLMIAVDLSGSMAVEDFTLPIATNELTNRAKNDTDSSATKSSTNDTGKGEKVNRLVAVKHVLNAFVKSREHDRLGLILFGDAPYLQAPFTDDIATWQALLNESDIGMAGQSTAFGDAIGLAISVFQQSDTQNRVLIVLTDGNDTASKVPPVEAAKVAAARDIKIYTIAIGDPSAVGEEKVDLEVLQAMAEITQGKSFQALNSEELLKVYAEI,not soluble
6,MLLSIIMPAHNAAAYLERTLALLAQQIAGLEQVEVVAIDDASTDETAKILVEFARTHSWLKAISVDFANVGLARQAGIGLAGGQYVTFLDSDDAFLSGGLAWMVNVLRQRAPDLLMTPLQETGQPLDGTEVAGLFQDVVPLSTQQACDLFCEHQRLQGHFAGKCVTRQILLQHDLAAMECYEDMMTTPHWIVEAKSIVWGEVPVYAYYKRPGSLSDRGQTWRYGKEYIRALQSIEAAFAGRIAVWQTAHLWIGFAKDLLKTSTGRQFLDTQPAVAEKIQSISVWKYLVATQVSCKWKIRFLRVRLRLLEHHHHHH,soluble
7,MKERLEHYSTSSIYSGFEVYLPLVLQTITDVIIAENIKSKKETGFKLYEHFTSRIKSEASMIEKCQRKQLPLTSKSALKIIKDSIGIRIICGFIDDIYRMVDLLKSIPGMSVNTEKDYILNAKPNGYRSYHLILELETHFPDILGEKKGCYFIEVQLRTIAQDSWASLEHQMKYKHQVANAEMITRELKRCADELASCDVTMQTIRQLIQETTEEE,not soluble
8,MDHEIPVRIVDNQEYMKVVRSILEEGKEVPLVVTGNSMMPFLIDRRDQVLIKRIERPLKKGDIAFFQRENGQYIMHRIHFMRKDDRTGENQFYFIGDGQKNIEGPIKETRIFGVITGVLRKGKYLDEHTFTWRFFENIWRYVIPFRPLIIKIYSLFKR,not soluble
9,IIYKETKPEEYNLRNPVVTQDYTVSMSGGNDRGTYYASLGYNDSPGAPITTEYTRYNFTFNGSYKIADWLKTTSNATFSRANYVWLNNDWGTEADYFGRVMSSPPTVRFEDEDGNSTLGPSPGDGNQTYVARSYDQDNERTKLTLMQSVEANLFKGLVLRASASWYYFHTVEENMRKDYETVPGQWDRTRSTSASYSRQFSQTYNAVLDYTTTFATSHNLNVMLGSEFYDQYNNGFSASGFGASTDDFKKLGLTDAGEGKRSIDSSHSRYRILSYFGRLNYDYEGKYLFSGVFRYDGYSSLLGKNRWGFFPGVSGGWVFTKEDFVKESLPFLYYGKLRASYGLNGNASGIGPYTLQGSYNSNKYHGNNGFLIGALPNPSLRWEKTASFDIGLNVGLLDGRLNLDIDYYNRLTSDKYADLTLPSTTGFSSIRNNNGKLRNRGIELQLSGKIMETRDFTWDASLNITYNKNKIIALPYNKEPRNRQEGQQVYTGRKIANPETGVFEDEKVWVGGFQEGMEYGVLVGYQAEGIYQSMDDIPGDLVVKSGNAQGKYQYGPDAWKRLSAAEQAKGVEIKPGDMKWKDVNGDGMIDQYDQVVIGNTTPRWFGGFNTTMSWKGLSLYARFDFALDYWVYDNQTPWLLGCMQGTYNTTKDVFNTWNESNPNAKYPRYVYGDQLGTANYNRTSTLFASKGNYLGVRELSLSYTLPQELSKKLYMQKLQFSITGQNLGYLTSARTVSPEISSGYPLPRTVILGVNVTF,not soluble
10,MGSDKIHHHHHHMKNFIRKLIRALTAIRLETDRYKHSTLRIIINWLTAFLKDLFSAQEIRLYGLADPEDGANRIRQYVSKEMADRFYRKYNPGAAVPNIEDKFIFTTLCLQHHLPIPATYGIFKQGIVKTFDERIFQESSRFRDFIRELEPGEYLLKPNNGMLGLGLSILEIDDQGSLKFQGKSITADDLYRELCSIEVTLPASSKGDSVDMDFEGLLFQQRIANHPEITKLTGFKMLQTIRICTHVTDNNQVEILFAFMKLAGQEGLADAFNLGKTGNMLAKIDPATGKFCNVYAMDQQQGYLVETTHHAVTQANLLNFTVPHWQACLTLAMKLSTTFLPLRAVGWDIAITDNRPVVLEGNDNWVPVVPFDINIDKLKQYKLKS,not soluble
11,MASMKKSTENESTNYQYKIQELRKLLKSLLLNYLELIGVLSINPDMYERKVENIRTILVNIHHLLNEYRPHQSRESLIMLLEEQLEYKRGEIREIEQVCKQVHDKLTS,soluble
12,MSLSPLEMALLVHRGEFHLRELEPELPLEKFLKNADPKKTRKFLEKCGKEELERQKELIRKHNVKLVSFWEDDYPQHLREIRYPPAVLFVRGDAELLKEKCVGVVGTRRPTSYGVNVTKRFVKLLSEYFVIVSGMAFGIDSVAHKEALSSGGKTVAVLGTGVDVVYPRSNERLFHEIVKNGCVVSEYPMGTRARKHHFPARNRIIAGLSDAIIVTEAPIKSGALITVKFALESGRDVFAVPGDIDRKTSEGTNYLIKSGAYPLTDEEDLETHFGIRRIASPSLDDDKKKIYDLLRSSPKTVDELVEELGWSVSEVLRVISEMELMGMIWFDGGAYRLLGEGHHHHHH,soluble
13,MAKGVAVLSSSEGVAGTILFTQEGDGPTTVTGNISGLKPGLHGFHVHALGDTTNGCMSTGPHFNPAGKEHGSPEDETRHAGDLGNITVGDDGTACFTIVDKQIPLTGPHSIIGRAVVVHADPDDLGKGGHELSKSTGNAGGRIACGIIGLQG,soluble
14,MSAFTPASEVLLRHSDDFEQSRILFAGDLQDDLPARLDTAASRAHTQQFQHWQVLSRQMGDNARFSLVATADDVADCDTLIYYWPKNKPEAQFQLMNLLSLLPVGTDIFVVGENRSGVRSAEQMLADYAPLNKVDSARRCGLYFGRLEKQPVFDADKFWGEYSVDGLTVKTLPGVFSRDGLDVGSQLLLSTLTPHTKGKVLDVGCGAGVLSVAFARHSPKIRLTLCDVSAPAVEASRATLAANGVEGEVFASNVFSEVKGRFDMIISNPPFHDGMQTSLDAAQTLIRGAVRHLNSGGELRIVANAFLPYPDVLDETFGFHEVIAQTGRFKVYRAIMTRQAKKG,not soluble
15,MAHHHHHHNEKDIGKLKKTFEAFDHNGDGVLTISEIFQCLKLNDNELDTELYFLLKQLDTDGNGLIDYTEFLAACLDHSIFQQDVICRNAFNVFDLDGDGVITKEELFNILSFSAVQVSFSKEIIENLIKEVDANNDGFIDYDEFYKMMTGAK,soluble
16,MNLYRLLKQREADQKPLRVALIGAGKFGSMFLSQVQRTPGMRLVAVADLAPDRARAALTRVGWPAAALNADTIHHAVKTGKVYFSDDVRSVSVDPEVEIVIDATGQAAAGIEHVLTCCEYGKHII,not soluble
17,MSAFASSDRAEKSGIALEAQQKIYEKYDKNLAGEILQWVQNVTGQSFDTQGDADNLVKVFQDGSLLCTLANSLKPGSVKKVNTSAMAFKKMENISFFLKFAEEYVQKSELFQTVDLYEGQDPNAVLICLASLARKSEKNFGRSGLGPKEAQGDRREWTDEQLKAGHNVIGLQMGSNKGATASGLNMGNTRHM,not soluble
18,MGSDKIHHHHHHMKIAIEAQRIFRKEKHGMDYVALETIRELQKIDQQNEYFILVSPGDDVCLQESANMHIVTVNWPSYPLWEQIGLPLALKKIKPDLLHCTSNTAPVHGNIPLVLTLHDIIFLEKKQGKNQSMYQRLGRFYRKIIVPQILTKCKRIITVSHFECNRISHFLHIDKQLLVAVYNGYSQHFIPIRNAQAITARYIKNHPYLFFLGNTDPKKNTARVLQAYGIYLKKSSQPLPLLIADLKEEIIDEYLNREGLQEIKKMLYHPGYIPNTELPAVYSGASVFIYTSLRESFGIPILEAMACGTPVITSTTSAMPEIAGPEGILVNPFEPEEIASALLHLEENAEFYQSQTAYGLERVRRFSWENTAREILNIYKEILA,not soluble
19,MGSDKIHHHHHHMVLLDYHMHSLNSTDAHDEISALCAKAIARGLQEIAVTDHFEPSAGHEEYSEYDGRKYFTEIAEARRRFAGKLSIKSGVELGQPHLFPKYSLQLLEEYPYDYVLGSAHRMPNNVDFGEVRYTPENLAAYCASYLTELKALAQWGHYDCLGHLDLVKRYAAKYRLRANLMDYQEQLAEILRIVIDKGKGIEVNTSGLRQSSQECLPDLDIIRLYKELGGEIITVGSDAHWAEDVGKGIQEGLERLKKAGFKYVSVYTNRQPAMIKIGDKSALFTRGGLSA,not soluble
20,MNNLMPAELAPQINAHFNGKFEVELKYRLADREAFWARLSAKSPEVMLEDNLEHDCYFDSPSASLAAQHKSLCIREMQPSGIRLWIVKGPEKDRCEAVNITDANKAKSMLRTLGYQCVLEIKKRRSVYFLGQFHLTLDRLEGLGDFAELAIMTDDEAMLPVYEAQLVALAAELGLNESQREFLSYRQLQQALQQLEHHHHHH,not soluble
21,MGSDKIHHHHHHMPVVDAAWEEWLSSNVARGCSPDSMIDAMVQAGFATDAARVAVHKTFGQNPANPAFAAAAATEAALAKAAPQTYQYDDPPVARGNLIRAYDRDVRVVMRCERPQVIVFADVLSPDECAEMIERSRHRLKRSTTVNPATGKEDVIRNRTSEGIWYQRGEDPFIERMDRRISSLMNWPVENGEGLQILHYGTTGEYRPHFDYFPPDQPGSAVHTAQGGQRVATLVIYLNDVPDGGETIFPEAGMSVAASQGGAVYFRYMNDRRQLDPLTLHGGAPVLAGDKWIMTKWMRERAYG,not soluble
22,MTIKTLQYDDFMLYRERIRDLLVQIYDINFDVSHDYSINESNKKINLLDEYIKTNQAVLIGAVDGEKLVGFIWIYKHEYFGETRMHINQIIVDKEYKRKGIGKRLLEEAEKKAKELGIKVIDLFVSEKNAEAVNFYEKTGFVTERRYLKKILLEHHHHHH,not soluble
